{"source": "paper PMC6282620", "about": "“Structural and biochemical characterization of Plasmodium falciparum Hsp70‐x reveals functional versatility of its C‐terminal EEVN motif” (Proteins, 2018)", "key": {"[1]": {"target": "PfHsp70‐x C‐terminal truncated version with a missing EEVN motif (Plasmodium falciparum)", "assay": "SPR; PfHsp70‐x or PfHsp70‐xT immobilised on ProteOn GLC chips, hHop as analyte at 125-2000 nM, 25°C, PBS‐Tween pH 7.4, with 5 mM ADP, Langmuir model"}, "[2]": {"target": "Plasmodium falciparum Hsp70‐x (full length) (Plasmodium falciparum)", "assay": "SPR; PfHsp70‐x or PfHsp70‐xT immobilised on ProteOn GLC chips, hHop as analyte at 125-2000 nM, 25°C, PBS‐Tween pH 7.4, with 5 mM ADP, Langmuir model"}, "[3]": {"target": "PfHsp70‐x C‐terminal truncated version with a missing EEVN motif (Plasmodium falciparum)", "assay": "SPR; PfHsp70‐x or PfHsp70‐xT immobilised on ProteOn GLC chips, hHop as analyte at 125-2000 nM, 25°C, PBS‐Tween pH 7.4, with 5 mM ATP, Langmuir model"}, "[4]": {"target": "Plasmodium falciparum Hsp70‐x (full length) (Plasmodium falciparum)", "assay": "SPR; PfHsp70‐x or PfHsp70‐xT immobilised on ProteOn GLC chips, hHop as analyte at 125-2000 nM, 25°C, PBS‐Tween pH 7.4, with 5 mM ATP, Langmuir model"}, "[5]": {"target": "PfHsp70‐x C‐terminal truncated version with a missing EEVN motif (Plasmodium falciparum)", "assay": "SPR; PfHsp70‐x or PfHsp70‐xT immobilised on ProteOn GLC chips, hHop as analyte at 125-2000 nM, 25°C, PBS‐Tween pH 7.4, no nucleotide, Langmuir model"}, "[6]": {"target": "Plasmodium falciparum Hsp70‐x (full length) (Plasmodium falciparum)", "assay": "SPR; PfHsp70‐x or PfHsp70‐xT immobilised on ProteOn GLC chips, hHop as analyte at 125-2000 nM, 25°C, PBS‐Tween pH 7.4, no nucleotide, Langmuir model"}}}
{"substance": "human Hsp70‐Hsp90 organizing protein (from UniProt P31948 1-543) (natural protein)", "values": [{"measurement": "Kd", "setting": "[1]", "result": 1660, "unit": "nM"}, {"measurement": "koff", "setting": "[1]", "result": "2.1e-05", "unit": "s⁻¹"}, {"measurement": "kon", "setting": "[1]", "result": 42.6, "unit": "M⁻¹ s⁻¹"}, {"measurement": "Kd", "setting": "[2]", "result": 23.1, "unit": "nM"}, {"measurement": "koff", "setting": "[2]", "result": "3.7e-05", "unit": "s⁻¹"}, {"measurement": "kon", "setting": "[2]", "result": 3300, "unit": "M⁻¹ s⁻¹"}, {"measurement": "Kd", "setting": "[3]", "result": 41, "unit": "µM"}, {"measurement": "koff", "setting": "[3]", "result": 0.00032, "unit": "s⁻¹"}, {"measurement": "kon", "setting": "[3]", "result": 54.1, "unit": "M⁻¹ s⁻¹"}, {"measurement": "Kd", "setting": "[4]", "result": 380, "unit": "nM"}, {"measurement": "koff", "setting": "[4]", "result": 0.00044, "unit": "s⁻¹"}, {"measurement": "kon", "setting": "[4]", "result": 3470, "unit": "M⁻¹ s⁻¹"}, {"measurement": "Kd", "setting": "[5]", "result": 2100, "unit": "nM"}, {"measurement": "koff", "setting": "[5]", "result": "1.01e-05", "unit": "s⁻¹"}, {"measurement": "kon", "setting": "[5]", "result": 24.7, "unit": "M⁻¹ s⁻¹"}, {"measurement": "Kd", "setting": "[6]", "result": 30.1, "unit": "nM"}, {"measurement": "koff", "setting": "[6]", "result": "2.3e-05", "unit": "s⁻¹"}, {"measurement": "kon", "setting": "[6]", "result": 4300, "unit": "M⁻¹ s⁻¹"}]}
